Experimental data published in US20220289861A1 (ONCORESPONSE, published 2022).

Biological target: T1, His-tagged recombinant human CD163 (R&D Systems, No. 1607-CD-050) (human, UniProt Q86VB7 42-1050, limits assumed)
T1 construct: Bought protein; also called huCD163; not shown: His tag
Assay: ELISA on plate-coated recombinant human CD163 (5 ug/mL), anti-human IgG F(ab')2 HRP
Experimental: AB101 binding to His-tagged recombinant human CD163 (R&D Systems, No. 1607-CD-050) and recombinant murine CD163 (R&D Systems, No. 7435-CD-050) proteins was determined using ELISA. Recombinant proteins were diluted in PBS to 5 μg/mL and added to 384-well High binding ELISA plates (Greiner Bio-One, No. 781061) at 25 μL per well and incubated at 4° C. overnight. The plates were washed three times with PBS, using the BioTek ELx405 Select microplate washer (wash program ELISA_384_PBS_3×_wash) and then blocked with 90 μL/well of blocking buffer (2% nonfat, dry milk/PBS+0.05% Tween 20) for 1 hr at RT.
After blocking, 25 μL per well of primary antibodies were added to the plates and incubated for 1 hr at room temp. The test antibody was AB101; the control anti-huCD163 antibody was a commercially available antibody in murine IgG1 framework (R&D Systems, #MAB1607); the isotype controls were a proprietary mAb, in human IgG1, human FcNull, and murine IgG1 frameworks, with known specificity. After primary antibody binding, plates were washed three times with PBS using the EL405x (wash program ELISA_384_PBS_3×_wash). […] After development, the reaction was stopped by adding 25 μL per well of 0.3 M HCl and plates were read using the SpectraMax M5e instrument at 450 nm.

T1 sequence (Q86VB7 42-1050 limits assumed): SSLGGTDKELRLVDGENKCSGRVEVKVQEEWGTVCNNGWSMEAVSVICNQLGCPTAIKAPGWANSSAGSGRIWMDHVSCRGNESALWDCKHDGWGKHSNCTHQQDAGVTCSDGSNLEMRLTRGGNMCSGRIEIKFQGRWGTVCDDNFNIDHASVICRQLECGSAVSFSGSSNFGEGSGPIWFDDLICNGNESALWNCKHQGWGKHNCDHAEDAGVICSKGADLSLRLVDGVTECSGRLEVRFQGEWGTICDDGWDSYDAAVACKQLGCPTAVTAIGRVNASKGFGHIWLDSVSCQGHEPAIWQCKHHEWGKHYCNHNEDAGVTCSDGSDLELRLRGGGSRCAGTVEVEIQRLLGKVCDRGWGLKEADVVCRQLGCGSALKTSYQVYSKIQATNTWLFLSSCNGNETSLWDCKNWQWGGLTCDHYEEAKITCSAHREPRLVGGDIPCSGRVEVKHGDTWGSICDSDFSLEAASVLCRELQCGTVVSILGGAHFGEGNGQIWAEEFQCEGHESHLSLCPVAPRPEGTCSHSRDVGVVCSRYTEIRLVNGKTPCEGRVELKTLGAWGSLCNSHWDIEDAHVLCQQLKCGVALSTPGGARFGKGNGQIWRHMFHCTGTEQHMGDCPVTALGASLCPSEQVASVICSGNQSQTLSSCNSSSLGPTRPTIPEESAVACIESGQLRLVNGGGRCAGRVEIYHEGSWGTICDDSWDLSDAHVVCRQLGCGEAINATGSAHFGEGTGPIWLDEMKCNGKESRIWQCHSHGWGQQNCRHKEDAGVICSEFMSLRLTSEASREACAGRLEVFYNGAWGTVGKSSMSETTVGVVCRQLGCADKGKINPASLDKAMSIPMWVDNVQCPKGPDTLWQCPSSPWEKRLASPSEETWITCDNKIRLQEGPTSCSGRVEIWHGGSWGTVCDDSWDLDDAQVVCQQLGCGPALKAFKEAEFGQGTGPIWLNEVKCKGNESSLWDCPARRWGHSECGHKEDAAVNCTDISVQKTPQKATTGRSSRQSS

EC50 (read off the curve): ~1 nM
B1: AB102 (antibody, human IgG1, kappa)
heavy: EVQLVESGGGVVQPGRSLRLSCAASGFTFSSYAMHWVRQAPGKGLEWVAVISYDGSNKYYADSVKGRFTISRDNSKNTLYLQMNSLRAEDTAVYYCARENVRPYYDFWSGYYSEYYYYGMDVWGQGTTVTVSSASTKGPSVFPLAPSSKSTSGGTAALGCLVKDYFPEPVTVSWNSGALTSGVHTFPAVLQSSGLYSLSSVVTVPSSSLGTQTYICNVNHKPSNTKVDKRVEPKSCDKTHTCPPCPAPEFEGGPSVFLFPPKPKDTLMISRTPEVTCVVVDVSHEDPEVKFNWYVDGVEVHNAKTKPREEQYNSTYRVVSVLTVLHQDWLNGKEYKCKVSNKALPASIEKTISKAKGQPREPQVYTLPPSREEMTKNQVSLTCLVKGFYPSDIAVEWESNGQPENNYKTTPPVLDSDGSFFLYSKLTVDKSRWQQGNVFSCSVMHEALHNHYTQKSLSLSPGK
light: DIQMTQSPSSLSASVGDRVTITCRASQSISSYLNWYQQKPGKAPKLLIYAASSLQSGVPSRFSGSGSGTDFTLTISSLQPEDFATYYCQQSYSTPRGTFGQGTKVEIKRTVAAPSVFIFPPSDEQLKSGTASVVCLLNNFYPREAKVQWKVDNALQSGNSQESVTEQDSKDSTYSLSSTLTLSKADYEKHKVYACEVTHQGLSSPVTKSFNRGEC
notes: Biotinylated for the PFA immunoprecipitation and AF647-conjugated for flow cytometry; also called AB101 FcNull antibody; AB101 in FcNull framework
